Assay results taken from paper PMC4434323.

These sequences were tested against T1, C27D6.4 (C27D6.4) (Caenorhabditis elegans) (UniProt Q4JFH9).
T1 sequence: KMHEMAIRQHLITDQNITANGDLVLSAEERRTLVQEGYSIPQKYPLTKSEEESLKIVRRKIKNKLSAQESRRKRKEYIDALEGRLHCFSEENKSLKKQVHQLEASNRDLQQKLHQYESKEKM

Sequence | binding signal (PBM E-score (-0.5 to 0.5))
CACGTGTC (double strand) [8-mer CACGTGTC] | 0.496
ACGTGTCA (double strand) [8-mer ACGTGTCA] | 0.495
GACGTGGC (double strand) [8-mer GACGTGGC] | 0.494
ACACGTGT (double strand) [8-mer ACACGTGT] | 0.497
ACGTGGAT (double strand) [8-mer ACGTGGAT] | 0.492
CACGTGTA (double strand) [8-mer CACGTGTA] | 0.494
ACACGTGG (double strand) [8-mer ACACGTGG] | 0.498
ACGTGGCG (double strand) [8-mer ACGTGGCG] | 0.498
CACGTGGA (double strand) [8-mer CACGTGGA] | 0.495

Each sequence was assayed on T2, C34D1.1 (C34D1.1) (Caenorhabditis elegans).
T2 sequence: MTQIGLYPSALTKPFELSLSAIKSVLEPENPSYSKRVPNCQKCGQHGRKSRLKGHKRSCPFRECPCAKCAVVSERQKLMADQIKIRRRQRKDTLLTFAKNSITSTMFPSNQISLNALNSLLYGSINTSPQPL

Sequence | binding signal (PBM E-score (-0.5 to 0.5))
AGTGTTTC (double strand) [8-mer AGTGTTTC] | 0.47
GTGAAACA (double strand) [8-mer GTGAAACA] | 0.484
AAACATTT (double strand) [8-mer AAACATTT] | 0.473
ATTGTTTC (double strand) [8-mer ATTGTTTC] | 0.487

These sequences were tested against T3, Y48G1C.6 (Y48G1C.6) (Caenorhabditis elegans) (UniProt Q9N3P2).
T3 sequence: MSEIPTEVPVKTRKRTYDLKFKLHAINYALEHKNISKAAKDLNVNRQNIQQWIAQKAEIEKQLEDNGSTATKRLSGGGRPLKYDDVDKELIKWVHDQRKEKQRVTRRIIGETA

Sequence | binding signal (PBM E-score (-0.5 to 0.5))
GCATGCAA (double strand) [8-mer GCATGCAA] | 0.496
AGTGCAAG (double strand) [8-mer AGTGCAAG] | 0.493
GTCTTGCA (double strand) [8-mer GTCTTGCA] | 0.494
ACTTGCAC (double strand) [8-mer ACTTGCAC] | 0.495
GTGCAAGA (double strand) [8-mer GTGCAAGA] | 0.494
ACTTGCAT (double strand) [8-mer ACTTGCAT] | 0.493
ACTTGCAG (double strand) [8-mer ACTTGCAG] | 0.494
CATGCAAG (double strand) [8-mer CATGCAAG] | 0.496
CCTGCAAG (double strand) [8-mer CCTGCAAG] | 0.493
ATCTTGCA (double strand) [8-mer ATCTTGCA] | 0.495
CTTGCACC (double strand) [8-mer CTTGCACC] | 0.494
CTGCAAGA (double strand) [8-mer CTGCAAGA] | 0.494
ATGCAAGA (double strand) [8-mer ATGCAAGA] | 0.495
AACTTGCA (double strand) [8-mer AACTTGCA] | 0.494
ACTGCAAG (double strand) [8-mer ACTGCAAG] | 0.493

Each sequence was assayed against T4, Y53H1A.2 (Y53H1A.2) (Caenorhabditis elegans) (UniProt B1V8K4).
T4 sequence: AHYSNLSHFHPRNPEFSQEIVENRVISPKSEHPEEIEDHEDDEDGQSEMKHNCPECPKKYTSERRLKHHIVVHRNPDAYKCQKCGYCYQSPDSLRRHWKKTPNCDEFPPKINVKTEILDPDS

Sequence | binding signal (PBM E-score (-0.5 to 0.5))
CGCCCACC (double strand) [8-mer CGCCCACC] | 0.484

The sequences below were run against ZC328.2 (ZC328.2) (Caenorhabditis elegans) (UniProt O02050).
Sequence of ZC328.2 (ZC328.2) (Caenorhabditis elegans) (O02050 entry or part of it): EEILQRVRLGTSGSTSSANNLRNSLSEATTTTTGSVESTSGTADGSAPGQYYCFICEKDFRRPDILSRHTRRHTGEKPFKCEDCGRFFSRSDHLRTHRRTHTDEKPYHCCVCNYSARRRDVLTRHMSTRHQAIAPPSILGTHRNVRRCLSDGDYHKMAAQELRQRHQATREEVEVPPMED

Sequence | binding signal (PBM E-score (-0.5 to 0.5))
CCGCCTAC (double strand) [8-mer CCGCCTAC] | 0.488
CGCCCACC (double strand) [8-mer CGCCCACC] | 0.484
CGCCCCCC (double strand) [8-mer CGCCCCCC] | 0.487
CCCCCACG (double strand) [8-mer CCCCCACG] | 0.48
CCCCCCGC (double strand) [8-mer CCCCCCGC] | 0.486
CCCCACGC (double strand) [8-mer CCCCACGC] | 0.485

These sequences were tested against T5, ZK337.2 (ZK337.2) (Caenorhabditis elegans) (UniProt O46016).
T5 sequence: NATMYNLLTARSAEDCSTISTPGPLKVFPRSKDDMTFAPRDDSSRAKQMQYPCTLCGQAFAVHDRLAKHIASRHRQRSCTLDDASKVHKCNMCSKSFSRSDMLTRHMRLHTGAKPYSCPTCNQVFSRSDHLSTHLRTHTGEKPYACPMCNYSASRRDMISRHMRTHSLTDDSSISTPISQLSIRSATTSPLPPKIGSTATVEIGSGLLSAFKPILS

Sequence | binding signal (PBM E-score (-0.5 to 0.5))
CCACCCCC (double strand) [8-mer CCACCCCC] | 0.485
CCGCCCCC (double strand) [8-mer CCGCCCCC] | 0.495
CGCCCACA (double strand) [8-mer CGCCCACA] | 0.484
GCCCCCGC (double strand) [8-mer GCCCCCGC] | 0.489
CCACCCAC (double strand) [8-mer CCACCCAC] | 0.491
CACCCCCA (double strand) [8-mer CACCCCCA] | 0.482
CACCCACG (double strand) [8-mer CACCCACG] | 0.484

Each sequence was assayed against dmd-4 (C27C12.6) (Caenorhabditis elegans) (UniProt Q18248).
Sequence of dmd-4 (C27C12.6) (Caenorhabditis elegans) (Q18248 1-114): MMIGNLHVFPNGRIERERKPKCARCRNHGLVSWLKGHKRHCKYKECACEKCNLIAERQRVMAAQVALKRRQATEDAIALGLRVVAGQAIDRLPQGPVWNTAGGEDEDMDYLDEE

Sequence | binding signal (PBM E-score (-0.5 to 0.5))
TAGATACA (double strand) [8-mer TAGATACA] | 0.491
GATACATA (double strand) [8-mer GATACATA] | 0.482
AAAGTATC (double strand) [8-mer AAAGTATC] | 0.492
CATGTATC (double strand) [8-mer CATGTATC] | 0.483
ATGATACA (double strand) [8-mer ATGATACA] | 0.485
AGATACAT (double strand) [8-mer AGATACAT] | 0.492
AAGATACA (double strand) [8-mer AAGATACA] | 0.477
TGATACAA (double strand) [8-mer TGATACAA] | 0.489

The sequences below were run against T6, egrh-3 (Y94H6A.11) (Caenorhabditis elegans) (UniProt U4PLQ8).
T6 sequence: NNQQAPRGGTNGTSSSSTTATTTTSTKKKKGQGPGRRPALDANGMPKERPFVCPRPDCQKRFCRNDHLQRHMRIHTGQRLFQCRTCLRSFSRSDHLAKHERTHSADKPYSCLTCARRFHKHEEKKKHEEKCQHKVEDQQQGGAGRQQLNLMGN

Sequence | binding signal (PBM E-score (-0.5 to 0.5))
AGGGGGAG (double strand) [8-mer AGGGGGAG] | 0.493
AGGGGGGA (double strand) [8-mer AGGGGGGA] | 0.493
CCCCCCTC (double strand) [8-mer CCCCCCTC] | 0.497
CCCCCCAC (double strand) [8-mer CCCCCCAC] | 0.495
GGGGGGGA (double strand) [8-mer GGGGGGGA] | 0.499
ACCCCCCC (double strand) [8-mer ACCCCCCC] | 0.497
CCCCCCCC (double strand) [8-mer CCCCCCCC] | 0.5
AAGGGGGG (double strand) [8-mer AAGGGGGG] | 0.495
GGGGGGAA (double strand) [8-mer GGGGGGAA] | 0.493

The sequences below were run on T7, syd-9 (ZK867.1) (Caenorhabditis elegans).
T7 sequence: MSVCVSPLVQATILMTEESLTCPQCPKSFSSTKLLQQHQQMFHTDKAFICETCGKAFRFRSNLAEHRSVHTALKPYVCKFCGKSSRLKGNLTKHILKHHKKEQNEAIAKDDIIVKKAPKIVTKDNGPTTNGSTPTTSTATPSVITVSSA

Sequence | binding signal (PBM E-score (-0.5 to 0.5))
AACTGTAC (double strand) [8-mer AACTGTAC] | 0.492
ACTGTACC (double strand) [8-mer ACTGTACC] | 0.489
ACTGTACG (double strand) [8-mer ACTGTACG] | 0.491
GACTGTAC (double strand) [8-mer GACTGTAC] | 0.49
ACTGTACA (double strand) [8-mer ACTGTACA] | 0.494
GAACTGTA (double strand) [8-mer GAACTGTA] | 0.492
ACTGTAAT (double strand) [8-mer ACTGTAAT] | 0.489

Each sequence was assayed against ztf-11 (F52F12.6) (Caenorhabditis elegans) (UniProt O02274).
Sequence of ztf-11 (F52F12.6) (Caenorhabditis elegans) (O02274 212-388): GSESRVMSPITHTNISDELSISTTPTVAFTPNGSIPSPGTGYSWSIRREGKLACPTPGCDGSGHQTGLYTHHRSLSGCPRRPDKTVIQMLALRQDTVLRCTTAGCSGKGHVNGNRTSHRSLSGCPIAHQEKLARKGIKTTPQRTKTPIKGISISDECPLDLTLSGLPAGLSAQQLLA

Sequence | binding signal (PBM E-score (-0.5 to 0.5))
AAGTTTGG (double strand) [8-mer AAGTTTGG] | 0.485
GAAACTTC (double strand) [8-mer GAAACTTC] | 0.481
AAGTTTGC (double strand) [8-mer AAGTTTGC] | 0.483
AACTTTTG (double strand) [8-mer AACTTTTG] | 0.48
CAAACTTC (double strand) [8-mer CAAACTTC] | 0.48
CAAACTTG (double strand) [8-mer CAAACTTG] | 0.487
AAGTTTGT (double strand) [8-mer AAGTTTGT] | 0.487
AAGTTTGA (double strand) [8-mer AAGTTTGA] | 0.48
AAAAGTTT (double strand) [8-mer AAAAGTTT] | 0.492
AAACTTTG (double strand) [8-mer AAACTTTG] | 0.481
AAACTTCG (double strand) [8-mer AAACTTCG] | 0.487
AAACTTGC (double strand) [8-mer AAACTTGC] | 0.485
AAGTTTCG (double strand) [8-mer AAGTTTCG] | 0.483
AAAGTTTG (double strand) [8-mer AAAGTTTG] | 0.494
AAGTTTTC (double strand) [8-mer AAGTTTTC] | 0.48
